Experimental data published in patent publication US9845340B2, “Peptides that specifically bind HGF receptor (cMet) and uses thereof” (Dyax Corp., priority 2003, dated 2017).

Assays:
[1] = molecular target: T1, 3T3 cells that over-express human cMet (Homo sapiens, UniProt P08581); assay: Whole cell ELISA of peptide-displaying phage; assay type: cell-based; details: phage isolate; 3T3 cells expressing human cMet vs. non-expressing 3T3 cells
T1 construct: expressed in transfected cells; host or cells: 3T3 cells
Description: Whole cell ELISAs were performed using 3T3 cells that over-express human cMet. […] Briefly, 96-well plates were seeded with 10^5 cells per well. The plates were centrifuged for 5 minutes at 1600 rpm to pellet the cells. The resulting cell layer was fixed with 0.1% (v/v) glutaraldehyde for 12 minutes at 37 C. […] Peptide-displaying phage also were blocked in the above solution for 1 hour at 37 C. 100 μL of blocked phage was then added to each well and the plates were incubated for 1 hour at room temperature. The plates were washed with PBST. cMet-binding peptide-displaying phage were detected using an HRP-conjugated anti-M13 antibody.

[2] = molecular target: cMet-Fc fusion protein (Homo sapiens, UniProt P08581); assay: Protein phage ELISA: peptide-displaying phage binding to soluble cMet-Fc versus TRAIL-Fc; details: phage isolate; cMet-Fc vs. TRAIL-Fc
Description: Protein phage ELISAs using peptide-displaying phage isolates from the various selection campaigns were performed to determine specificity of the peptides for cMet versus an unrelated Fc-fusion protein (TRAIL-Fc). Briefly, 384-well plates were coated overnight at 4 C with 0.5 μg/mL of cMet-Fc fusion protein or TRAIL-Fc fusion protein (background). The plates were blocked for 2 hours 37C with 3% (w/v) BSA in PBS containing 0.05% (v/v) Tween-20 (PBST). The plates were washed with PBST and 100 μL of peptide-displaying phage were added to each well. The plates were incubated for 2 hours at room temperature and washed with PBST. cMet-binding peptide-displaying phage were detected using an HRP-conjugated anti-M13 antibody.

T1 sequence (P08581 25-1390): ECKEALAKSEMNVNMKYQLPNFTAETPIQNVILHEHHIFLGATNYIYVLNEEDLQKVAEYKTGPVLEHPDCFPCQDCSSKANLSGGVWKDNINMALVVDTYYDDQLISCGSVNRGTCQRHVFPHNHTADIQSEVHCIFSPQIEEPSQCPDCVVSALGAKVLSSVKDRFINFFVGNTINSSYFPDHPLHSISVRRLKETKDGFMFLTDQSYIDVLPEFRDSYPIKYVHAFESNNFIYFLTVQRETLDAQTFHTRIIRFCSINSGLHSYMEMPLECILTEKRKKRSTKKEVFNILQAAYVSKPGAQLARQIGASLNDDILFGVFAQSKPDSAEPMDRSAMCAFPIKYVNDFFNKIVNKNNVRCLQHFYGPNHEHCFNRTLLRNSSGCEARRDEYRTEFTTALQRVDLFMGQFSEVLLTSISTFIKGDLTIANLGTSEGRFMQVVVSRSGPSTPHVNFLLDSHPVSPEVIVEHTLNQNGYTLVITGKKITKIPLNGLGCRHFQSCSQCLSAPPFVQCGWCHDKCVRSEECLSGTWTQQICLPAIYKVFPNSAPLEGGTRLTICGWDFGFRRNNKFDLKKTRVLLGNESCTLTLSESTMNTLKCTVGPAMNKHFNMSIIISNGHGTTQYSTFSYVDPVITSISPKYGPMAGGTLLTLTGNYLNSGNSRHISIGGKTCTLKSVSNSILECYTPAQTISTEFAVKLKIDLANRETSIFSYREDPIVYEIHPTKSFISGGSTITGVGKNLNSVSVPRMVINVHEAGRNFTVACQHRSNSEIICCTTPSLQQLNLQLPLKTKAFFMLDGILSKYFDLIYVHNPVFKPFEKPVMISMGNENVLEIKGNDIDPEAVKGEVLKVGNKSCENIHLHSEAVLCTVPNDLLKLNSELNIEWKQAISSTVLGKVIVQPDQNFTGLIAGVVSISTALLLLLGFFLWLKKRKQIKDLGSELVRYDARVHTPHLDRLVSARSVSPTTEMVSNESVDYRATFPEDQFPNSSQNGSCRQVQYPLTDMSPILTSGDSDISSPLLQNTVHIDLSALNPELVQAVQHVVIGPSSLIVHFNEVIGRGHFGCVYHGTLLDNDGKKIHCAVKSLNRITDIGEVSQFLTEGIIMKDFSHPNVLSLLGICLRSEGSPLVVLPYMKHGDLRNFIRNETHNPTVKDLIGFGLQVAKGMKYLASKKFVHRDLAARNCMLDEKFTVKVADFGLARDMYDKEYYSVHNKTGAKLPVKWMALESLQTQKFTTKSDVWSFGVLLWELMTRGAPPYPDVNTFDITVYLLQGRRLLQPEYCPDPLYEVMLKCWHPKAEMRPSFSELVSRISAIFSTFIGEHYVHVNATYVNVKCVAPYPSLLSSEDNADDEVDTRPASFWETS
cMet-Fc fusion protein, sequence (P08581 25-307 limits assumed): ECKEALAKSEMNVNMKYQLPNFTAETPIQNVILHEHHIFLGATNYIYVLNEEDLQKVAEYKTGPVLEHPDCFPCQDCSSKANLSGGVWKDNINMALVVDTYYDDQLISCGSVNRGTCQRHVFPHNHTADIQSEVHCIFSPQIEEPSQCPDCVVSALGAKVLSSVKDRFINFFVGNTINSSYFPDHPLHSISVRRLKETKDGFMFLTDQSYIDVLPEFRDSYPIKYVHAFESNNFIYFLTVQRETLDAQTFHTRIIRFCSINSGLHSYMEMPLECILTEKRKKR
cMet-Fc fusion protein, sequence (P08581 with tags, fused parts or gaps limits assumed): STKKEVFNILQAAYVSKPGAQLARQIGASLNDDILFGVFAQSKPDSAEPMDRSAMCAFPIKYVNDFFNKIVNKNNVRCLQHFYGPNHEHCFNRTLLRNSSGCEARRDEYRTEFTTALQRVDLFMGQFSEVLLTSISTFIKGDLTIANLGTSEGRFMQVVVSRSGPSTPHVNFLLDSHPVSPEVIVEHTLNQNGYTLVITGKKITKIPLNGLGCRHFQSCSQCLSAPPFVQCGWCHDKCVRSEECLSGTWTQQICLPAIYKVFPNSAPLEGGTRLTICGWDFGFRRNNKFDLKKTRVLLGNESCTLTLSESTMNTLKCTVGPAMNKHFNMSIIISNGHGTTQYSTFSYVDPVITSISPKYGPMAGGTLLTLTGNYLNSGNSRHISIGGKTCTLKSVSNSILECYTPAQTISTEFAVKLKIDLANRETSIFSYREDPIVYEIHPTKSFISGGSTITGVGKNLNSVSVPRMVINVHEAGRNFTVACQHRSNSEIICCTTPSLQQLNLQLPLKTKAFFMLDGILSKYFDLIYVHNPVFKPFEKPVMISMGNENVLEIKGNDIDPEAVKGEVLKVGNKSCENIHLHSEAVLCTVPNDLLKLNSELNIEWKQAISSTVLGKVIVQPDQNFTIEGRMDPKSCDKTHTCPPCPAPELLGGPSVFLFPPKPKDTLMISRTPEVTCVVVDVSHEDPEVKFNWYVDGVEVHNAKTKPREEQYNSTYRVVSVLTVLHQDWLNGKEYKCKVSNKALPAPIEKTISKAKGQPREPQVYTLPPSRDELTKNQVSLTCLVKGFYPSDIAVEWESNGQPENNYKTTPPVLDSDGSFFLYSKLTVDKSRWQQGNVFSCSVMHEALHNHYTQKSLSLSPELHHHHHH

Compound | WC ELISA [1] [fold over background] | Protein ELISA [2] [fold over background]
AGHGTCRGWPTFECIYFGT (Synthetically generated cMet-binding peptide sequence) [SEQ ID NO: 064] | 1.40 | 6.0
CSCC[C@H](NC(=O)[C@H](CCCNC(=N)N)NC(=O)[C@H](Cc1c[nH]c2ccccc12)NC(=O)[C@H](CO)NC(=O)[C@H](CO)NC(=O)[C@H](CC(C)C)NC(=O)[C@H](Cc1ccccc1)NC(=O)[C@H](CC(=O)O)NC(=O)[C@H](CC(C)C)NC(=O)[C@H](Cc1ccc(O)cc1)NC(=O)[C@H](Cc1c[nH]c2ccccc12)NC(=O)[C@H](Cc1ccc(O)cc1)NC(=O)[C@@H]1CCCN1C(=O)[C@H](CCC(=O)O)NC(=O)[C@H](CCC(=O)O)NC(=O)[C@@H](NC(=O)[C@H](CCC(=O)O)NC(=O)[C@H](CCCNC(=N)N)NC(=O)[C@H](CCC(N)=O)NC(=O)[C@H](C)NC(C)=O)C(C)C)C(=O)N[C@@H](Cc1c[nH]cn1)C(=O)N[C@@H](CCC(=O)O)C(=O)NCC(=O)NCC(=O)NCC(=O)N[C@@H](CCCCNC(=O)c1ccc2c(c1)C(=O)OC21c2ccc(O)cc2Oc2cc(O)ccc21)C(N)=O [SEQ ID NO: 451] | 1.33 | 8.2
GSQQICDRKEYRFQACLSDAP (Synthetically generated cMet-binding peptide sequence) [SEQ ID NO: 371] | 1.40 | 3.4
AGSIACTGWPYFSCIDLGT (Synthetically generated cMet-binding peptide sequence) [SEQ ID NO: 088] | 1.10 | 5.6
AQMWHRVHDPGYTFEVTWLWDN (Synthetically generated cMet-binding peptide sequence) [SEQ ID NO: 488] | 1.27 | 3.0
AGYYHCIDDFPQCKWMGT (Synthetically generated cMet-binding peptide sequence) [SEQ ID NO: 017] | 1.37 | 3.9
GDASWCDENSPAAWFYCELWDP (Synthetically generated cMet-binding peptide sequence) [SEQ ID NO: 394] | 1.37 | 13.4
AGTLSCSEEYKSCQLQGT (Synthetically generated cMet-binding peptide sequence) [SEQ ID NO: 027] | 1.30 | 3.6
AQGGRYPFYDTDWFKWEMYVL (Synthetically generated cMet-binding peptide sequence) [SEQ ID NO: 496] | 1.30 | 3.8
CC[C@H](C)[C@H](NC(=O)[C@H](Cc1c[nH]c2ccccc12)NC(=O)[C@H](CO)NC(=O)CNC(C)=O)C(=O)N[C@H](C(=O)N[C@H]1CSSC[C@@H](C(=O)NCC(=O)N[C@@H](CO)C(=O)N[C@@H](CO)C(=O)N[C@@H](C)C(=O)N2CCC[C@H]2C(=O)NCC(=O)NCC(=O)NCC(=O)N[C@@H](CCCCNC(=O)c2ccc3c(c2)C(=O)OC32c3ccc(O)cc3Oc3cc(O)ccc32)C(N)=O)NC(=O)[C@H](CC(N)=O)NC(=O)[C@H](CC(=O)O)NC(=O)[C@H](Cc2c[nH]c3ccccc23)NC(=O)[C@H](Cc2c[nH]c3ccccc23)NC1=O)[C@@H](C)CC [SEQ ID NO: 001] | 1.30 | 4.9
GSTMSCWRWGRDAYSCNQMAP (Synthetically generated cMet-binding peptide sequence) [SEQ ID NO: 372] | 1.37 | 4.6
GDGFLCRWENGWCEFWDP (Synthetically generated cMet-binding peptide sequence) [SEQ ID NO: 047] | 1.30 | 4.7

Other lines, results leading:

WC ELISA [1] [fold over background] | Protein ELISA [2] [fold over background] | Compound
1.23 | 4.0 | CC[C@H](C)[C@H](NC(=O)[C@H](CC(=O)O)NC(=O)[C@H](Cc1ccccc1)NC(=O)[C@H](Cc1ccccc1)NC(=O)[C@H](CCC(=O)O)NC(=O)[C@H](Cc1c[nH]c2ccccc12)NC(=O)[C@@H](NC(=O)[C@H](CCC(=O)O)NC(=O)[C@H](CCCCN)NC(=O)[C@H](CCC(N)=O)NC(=O)[C@H](C)NC(C)=O)[C@@H](C)O)C(=O)N[C@H](C(=O)N[C@@H](Cc1ccc(O)cc1)C(=O)NCC(=O)N[C@@H](CO)C(=O)NCC(=O)N[C@@H](Cc1c[nH]c2ccccc12)C(=O)N[C@@H](CCCCN)C(=O)N[C@@H](Cc1ccccc1)C(=O)N[C@@H](CC(N)=O)C(=O)N[C@@H](CO)C(=O)N1CCC[C@H]1C(=O)NCC(=O)NCC(=O)NCC(=O)N[C@@H](CCCCNC(=O)c1ccc2c(c1)C(=O)OC21c2ccc(O)cc2Oc2cc(O)ccc21)C(N)=O)C(C)C [SEQ ID NO: 466]
1.30 | 14.5 | AGYPECKDNYHWCEWKGT (Synthetically generated cMet-binding peptide sequence) [SEQ ID NO: 024]
1.30 | 3.8 | AGVTNCNLSTMFCFLHGT (Synthetically generated cMet-binding peptide sequence) [SEQ ID NO: 026]
1.33 | 4.5 | GSGDPCSPGPSINGHCSVMAP (Synthetically generated cMet-binding peptide sequence) [SEQ ID NO: 382]
1.33 | 4.3 | GSSARCDELINDFHSCLVMAP (Synthetically generated cMet-binding peptide sequence) [SEQ ID NO: 375]
1.27 | 10.3 | AGETFCVGNPSFECWSWGT (Synthetically generated cMet-binding peptide sequence) [SEQ ID NO: 094]
1.37 | 3.1 | GSFTACNKTSTTRQPCNPYAP (Synthetically generated cMet-binding peptide sequence) [SEQ ID NO: 384]
1.23 | 3.1 | AGHFECPKHQYMCDMPGT (Synthetically generated cMet-binding peptide sequence) [SEQ ID NO: 042]
1.30 | 7.0 | CSCC[C@H](NC(=O)[C@@H]1CCCN1C(=O)[C@H](CO)NC(=O)CNC(=O)[C@@H](NC(=O)[C@H](CCC(N)=O)NC(=O)[C@H](C)NC(C)=O)C(C)C)C(=O)N[C@@H](CC(C)C)C(=O)N1CCC[C@H]1C(=O)N[C@@H](CO)C(=O)N[C@@H](Cc1c[nH]c2ccccc12)C(=O)N[C@@H](Cc1ccccc1)C(=O)N[C@@H](CO)C(=O)N[C@@H](Cc1ccccc1)C(=O)N[C@@H](CCC(=O)O)C(=O)N[C@@H](C)C(=O)N[C@@H](CC(N)=O)C(=O)N[C@@H](Cc1c[nH]c2ccccc12)C(=O)N[C@@H](CO)C(=O)N[C@@H](CO)C(=O)NCC(=O)NCC(=O)NCC(=O)N[C@@H](CCCCNC(=O)c1ccc2c(c1)C(=O)OC21c2ccc(O)cc2Oc2cc(O)ccc21)C(N)=O [SEQ ID NO: 456]
1.27 | 10.7 | AGYWSCAGPPMFMCTWQGT (Synthetically generated cMet-binding peptide sequence) [SEQ ID NO: 079]
1.33 | 3.9 | AGWSDCLGPPQFTCVHWGT (Synthetically generated cMet-binding peptide sequence) [SEQ ID NO: 083]
1.37 | 3.3 | GSSHCNQMITPWQNCGMRAP (Synthetically generated cMet-binding peptide sequence) [SEQ ID NO: 374]
1.37 | 3.0 | AGIWFCNNEEKSCWAYGT (Synthetically generated cMet-binding peptide sequence) [SEQ ID NO: 040]
1.33 | 4.1 | AGWWSCQWELNVCIWQGT (Synthetically generated cMet-binding peptide sequence) [SEQ ID NO: 016]
